Here are results for 15 molecules from US20210130452A1 (Merck KGaA, published 2021).

T1: human IL-17F (human, UniProt Q96PD4 31-163)
T1 construct: made in Hek293 cells (GenBank AF384857); also called hIL-17F; hIL17F
T1 sequence: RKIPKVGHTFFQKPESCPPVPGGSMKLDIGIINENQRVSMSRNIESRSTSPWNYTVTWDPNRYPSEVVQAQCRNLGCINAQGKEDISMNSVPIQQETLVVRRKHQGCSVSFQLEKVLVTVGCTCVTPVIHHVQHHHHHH

T2: rat IL-17F (rat, UniProt Q5BJ95 29-161)
T2 sequence (looked up): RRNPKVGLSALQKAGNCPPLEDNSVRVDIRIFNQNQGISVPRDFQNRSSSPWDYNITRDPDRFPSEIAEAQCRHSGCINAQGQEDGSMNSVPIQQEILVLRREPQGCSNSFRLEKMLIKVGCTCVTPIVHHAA

T3: rat IL-17A (rat, UniProt Q61453 18-150, limits assumed)
T3 construct: made in E. coli, bought
T3 sequence (looked up): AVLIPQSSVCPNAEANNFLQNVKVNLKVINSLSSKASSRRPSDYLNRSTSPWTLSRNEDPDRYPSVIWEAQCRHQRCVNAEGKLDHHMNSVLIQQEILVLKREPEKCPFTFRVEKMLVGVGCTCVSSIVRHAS

T4: mouse IL-17F (mouse, UniProt Q7TNI7 29-161)
T4 sequence (looked up): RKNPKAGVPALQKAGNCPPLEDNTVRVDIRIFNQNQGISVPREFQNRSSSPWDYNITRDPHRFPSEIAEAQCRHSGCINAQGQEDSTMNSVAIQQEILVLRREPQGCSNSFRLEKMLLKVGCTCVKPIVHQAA

T5: mouse IL-17A (mouse, UniProt Q62386 26-158)
T5 sequence (looked up): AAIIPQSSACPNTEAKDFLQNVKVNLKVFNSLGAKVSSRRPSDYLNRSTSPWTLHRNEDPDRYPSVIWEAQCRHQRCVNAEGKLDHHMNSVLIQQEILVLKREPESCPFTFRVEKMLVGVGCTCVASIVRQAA

T6: human IL-17B (human, UniProt Q9UHF5 21-180)
T6 construct: expressed in E. coli; also called hIL-17B
T6 sequence (looked up): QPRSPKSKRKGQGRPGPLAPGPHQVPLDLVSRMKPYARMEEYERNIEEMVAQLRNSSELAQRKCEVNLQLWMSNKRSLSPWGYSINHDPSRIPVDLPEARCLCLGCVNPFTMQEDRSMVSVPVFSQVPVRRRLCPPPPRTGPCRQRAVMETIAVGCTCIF

T7: human IL-17E (human, UniProt Q9H293 33-177)
T7 construct: expressed in E. coli; also called hIL-17E
T7 sequence (looked up): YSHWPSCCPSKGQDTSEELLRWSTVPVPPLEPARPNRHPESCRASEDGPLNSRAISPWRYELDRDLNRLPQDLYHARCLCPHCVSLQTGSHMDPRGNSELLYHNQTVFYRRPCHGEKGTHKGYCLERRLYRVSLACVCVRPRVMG

T8: human IL-17D (human, UniProt Q8TAD2 18-202, limits assumed)
T8 construct: expressed in E. coli; also called hIL-17D
T8 sequence (looked up): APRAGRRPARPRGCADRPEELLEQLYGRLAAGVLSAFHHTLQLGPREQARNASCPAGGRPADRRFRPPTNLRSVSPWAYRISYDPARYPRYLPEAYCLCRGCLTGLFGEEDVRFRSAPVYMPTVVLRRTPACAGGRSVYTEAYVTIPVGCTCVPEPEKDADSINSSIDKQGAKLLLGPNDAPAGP

T9: human IL-17C (human, UniProt Q9P0M4 19-197)
T9 construct: expressed in E. coli; also called hIL-17C
T9 sequence (looked up): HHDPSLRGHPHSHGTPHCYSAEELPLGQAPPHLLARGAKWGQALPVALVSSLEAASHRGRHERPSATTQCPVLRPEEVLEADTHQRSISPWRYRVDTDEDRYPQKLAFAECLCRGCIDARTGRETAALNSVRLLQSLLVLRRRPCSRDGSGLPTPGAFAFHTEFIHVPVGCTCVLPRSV

B1: IL17MS3018 (VHH)
VHH: EVQLVESGGGLVQPGGSLRLSCAASGRTYDAMGWLRQAPGKEREFVAAISGSGDDTYYADSVKGRFTISKDNSGITMYLQMNSLRPEDTAVYYCATRRGLYYVWDSNDYENWGQGTLVTVSS
notes: basic variant of IL17MS13E02; Kabat numbering; also called IL17MS3018 basic
B2: IL17MS3037 (VHH)
VHH: B1 VHH with P14A, S73A, R85K, S106A, L117Q
notes: variant of IL17MS13E02; Kabat numbering
B3: IL17MS3034 (VHH)
VHH: B1 VHH with P14A, M32L, S73A, R85K, L117Q
notes: as for B2
B4: IL17MS3021 (VHH)
VHH: B1 VHH with G74K
notes: as for B2
B5: IL17MS3036 (VHH)
VHH: B1 VHH with P14A, S73A, R85K, S106T, L117Q
notes: as for B2
B6: IL17MS3019 (VHH)
VHH: B1 VHH with L35F
notes: as for B2
B7: IL17MS3020 (VHH)
VHH: B1 VHH with K70R
notes: as for B2
B8: IL17MS3027 (VHH)
VHH: B1 VHH with K70R, I75N
notes: as for B2
B9: IL17MS3035 (VHH)
VHH: B1 VHH with P14A, S73A, M77L, R85K, L117Q
notes: as for B2
B10: IL17MS3022 (VHH)
VHH: B1 VHH with I75N
notes: as for B2
B11: IL17MS3032 (VHH)
VHH: B1 VHH with K70R, G74K, I75N
notes: as for B2
B12: 13B03 (VHH)
VHH: EVQLVESGGGSVQAGDSLRLSCAASGRANSINWFGWFRQTPGKEREFVAGIRWSDAYTEYANSVKGRFTISRDNAKNTVDLQMDSLKPEDTAVYYCVLDLSTVRYWGQGTQVTVSS
notes: Class 4; also called IL17MS13B03
B13: 13E02 (VHH)
VHH: B1 VHH with P14A, S73A, R85K, L117Q
notes: Class 4; also called IL17MS13E02
B14: 13B05 (VHH)
VHH: EVQLVESGGRLVQAGGSLRLSCAASGRTFTSYPMGWFRQAPGKEREFVAAISMSGDDTAYTDFVRGRFTISRDDARNTVYLHMTSLKPEDTAVYYCAARTSYDGTYDYIDDYSYWGQGTQVTVSS
notes: Class 4
B15: 17C01 (VHH)
VHH: B14 VHH with S21P, T58A, T61A
notes: Class 4

Positions count from the first letter of the chain named.

The target of one assay is T1, human IL-17F. Briefly: AlphaScreen hIL-17F-IL-17RC; vs IL17MS13E02. For orientation: Bead proximity is the source of the signal in Alpha formats.
For B1, the “IC50 fold difference vs WT” value stood at 0.8 fold.
For B2, the “IC50 fold difference vs WT” value was 1 fold.
On to B3, for which the “IC50 fold difference vs WT” value was 2.7 fold.
The same measure, in the same setting: with B4 the figure was 0.9 fold.
The same measure, in the same setting: in the case of B5 it was 2.2 fold.
Turning to B6, the “IC50 fold difference vs WT” value turned out to be 4.6 fold.
For the molecule B7, the “IC50 fold difference vs WT” value amounted to 1.3 fold.
For B8, the “IC50 fold difference vs WT” value was 0.6 fold.
B9: the “IC50 fold difference vs WT” value was 1.22 fold.
Same read-out and setting: in the case of B10 it was 0.9 fold.
The same measure, in the same setting: with B11 the figure was 0.5 fold.

The next assay addresses T2, rat IL-17F. In words: binding ELISA.
Protocol: (§1) Binding of a selected panel of anti-IL-17 Nanobodies to IL-17 of other species was assessed using a binding ELISA. […] HRP (horseradish peroxidase) conjugated anti-myc (Serotec, MCA 2200P) was used for detection using esTMB as substrate.
As for B12, the binding result is reported as “no binding (tested: 250 nM)”.
On the same count and under the same terms, in the case of B13 it was “no binding (tested: 250 nM)”; in that of B14, “no binding (tested: 250 nM)”.
Regarding B15, the binding result is recorded as “no binding (tested: 250 nM)”.

The target of the next assay is T3, rat IL-17A. Briefly: binding ELISA. In general terms: An ELISA detects its analyte on a solid surface through an enzyme-linked reagent.
Protocol: as §1
As for B12, the binding result is “no binding (tested: 250 nM)”.
Consider B13, for which the binding result is reported as “no binding (tested: 250 nM)”.
For the molecule B14, the binding result was “no binding (tested: 250 nM)”.
In the case of B15, the binding result is given as “no binding (tested: 250 nM)”.

For another assay, the target named is T4, mouse IL-17F. In words: binding ELISA.
Protocol: as §1
With B12, the binding result is reported as “no binding (tested: 250 nM)”.
As to B13, the binding result is “no binding (tested: 250 nM)”.
In the case of B14, the binding result is listed as “no binding (tested: 250 nM)”.
As to B15, the binding result is “no binding (tested: 250 nM)”.

In a further assay the target is T5, mouse IL-17A. Briefly: binding ELISA.
Protocol: as §1
On to B12, for which the binding result is on record as “no binding (tested: 250 nM)”.
In the case of B13, the binding result was “no binding (tested: 250 nM)”.
Still for that read-out and setting: in the case of B14 it was “no binding (tested: 250 nM)”; in that of B15, “no binding (tested: 250 nM)”.

Another assay concerns the target T1, human IL-17F. In words: SPR (Biacore) off-rate. (SPR reads the build-up and loss of mass on a sensor chip optically.)
For B1, the koff came to 0.00267 s⁻¹.
On the same count and under the same terms, in the case of B2 it was 0.00367 s⁻¹; in that of B3, 0.00596 s⁻¹; in that of B4, 0.00432 s⁻¹.
The same measure, in the same setting: in the case of B5 it was 0.0044 s⁻¹; in that of B6, 0.0349 s⁻¹; in that of B7, 0.00147 s⁻¹.
B8 showed an off-rate (koff) of 0.0013 s⁻¹.
Molecule B9 yielded a koff of 0.00431 s⁻¹.
With B10, the off-rate constant (koff) was found to be 0.0024 s⁻¹.
With B11, the koff came to 0.00083 s⁻¹.

In a further assay the target is T10, human IL-17A/F heterodimer (human, UniProt Q16552 24-155; Q96PD4 31-163, limits assumed).
T10 construct: bought, made in E. coli (R&D Systems 5194-IL/CF); also called hIL-17A/F; hIL17A/F
In words: SPR (Biacore) off-rate.
Consider B1, for which the koff was 1.38e-05 s⁻¹.
Take B2: the koff stood at 4.67e-05 s⁻¹.
The molecule B3 gave a koff of 4.02e-05 s⁻¹. This koff and that of the molecule before are within 1.5-fold of each other.
Molecule B4 came in with a koff of 6.43e-05 s⁻¹.
B5 registered a koff of 4.31e-05 s⁻¹.
For the molecule B6, the koff was 0.00031 s⁻¹. Compared with the last molecule, the koff is about 7.2-fold higher.
As to B7, the koff is < 1e-06 s⁻¹.
Same read-out and setting: in the case of B9 it was 3.65e-05 s⁻¹; in that of B10, 9.89e-06 s⁻¹.

The next assay deals with T11, human IL-17A (human, UniProt Q16552 24-155).
T11 construct: secreted form made in Hek293 cells (GenBank U32659); also called hIL-17A; hIL17A
T11 sequence (Q16552 other isoform, or with tags, fused parts or gaps): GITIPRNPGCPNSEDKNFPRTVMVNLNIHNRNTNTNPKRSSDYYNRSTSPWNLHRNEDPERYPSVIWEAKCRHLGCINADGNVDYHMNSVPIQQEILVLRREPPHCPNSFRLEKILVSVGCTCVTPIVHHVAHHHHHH
Briefly: SPR (Biacore) off-rate.
In turn, B1 returned a koff of 9.26e-05 s⁻¹.
On to B2, for which the koff came to 0.000116 s⁻¹.
As for B3, the koff worked out at 0.000116 s⁻¹.
On the same count and under the same terms, in the case of B4 it was 0.000216 s⁻¹.
The molecule B5 yielded a koff of 0.000132 s⁻¹.
The molecule B6 came in with a koff of 0.000745 s⁻¹.
Still for that read-out and setting: in the case of B7 it was 2.84e-05 s⁻¹.
As for B9, the koff worked out at 7.59e-05 s⁻¹.
The molecule B10 yielded a koff of 6.41e-05 s⁻¹. This koff and that of the molecule before are within 1.5-fold of each other.

Another assay concerns the target T11, human IL-17A. Briefly: AlphaScreen hIL-17A-IL-17RA; vs IL17MS13E02.
For the molecule B1, the “IC50 fold difference vs WT” value is 1.13 fold.
In the case of B2, the “IC50 fold difference vs WT” value was determined as 1.61 fold.
With B3, the “IC50 fold difference vs WT” value was 1.68 fold.
As for B4, the “IC50 fold difference vs WT” value turned out to be 2.75 fold.
B5: the “IC50 fold difference vs WT” value was 2.06 fold.
Consider B6, for which the “IC50 fold difference vs WT” value is 3.72 fold.
For the molecule B7, the “IC50 fold difference vs WT” value turned out to be 1.24 fold.
For B8, the “IC50 fold difference vs WT” value was 1.23 fold.
Consider B9, for which the “IC50 fold difference vs WT” value was determined as 2 fold.
In the case of B10, the “IC50 fold difference vs WT” value stood at 1.17 fold.
Still for that read-out and setting: with B11 the figure was 1.42 fold.

In the next assay the target is T6, human IL-17B. Briefly: SPR, cytokine on chip.
Description: (§2) Human IL-17B, IL-17C, IL-17D or IL-17E were all expressed in E. coli, and covalently bound to a CM sensor chip surface via amine coupling using EDC/NHS for activation and HCl for deactivation.
(§3) Next, binding buffer was sent over the chip at the same flow rate to allow spontaneous dissociation of bound Nanobody or antibody.
Take B12: the binding result is reported as “no binding”.
With B13, the binding result is “no binding”.
Regarding B14, the binding result is reported as “no binding”.
B15: the binding result was “no binding”.

A further assay addresses T7, human IL-17E. Briefly: SPR, cytokine on chip.
Description: as §2, §3
Turning to B12, the binding result is on record as “no binding”.
For B13, the binding result is on record as “no binding”.
Same read-out and setting: with B14 the entry was “no binding”.
For the molecule B15, the binding result is “no binding”.

The target in another assay is T8, human IL-17D. In words: SPR, cytokine on chip.
Description: as §2, §3
On to B12, for which the binding result was “no binding”.
Turning to B13, the binding result is listed as “no binding”.
Turning to B14, the binding result is “no binding”.
As for B15, the binding result is “no binding”.

The target in another assay is T9, human IL-17C. Briefly: SPR, cytokine on chip.
Description: as §2, §3
B12: the binding result was “no binding”.
As for B13, the binding result is on record as “no binding”.
Consider B14, for which the binding result is on record as “no binding”.
As to B15, the binding result is given as “no binding”.

What is called koff is the first-order rate constant of dissociation.
